For test [1], the system named is ZR75-1 and MDA-MB 231 cell lines (single-cell clones). As to the kind of experiment: Morphological change in single-cell malignant clones. The test is classed as cell-based, human. The protocol:
Because each of these tumor cell lines obtained from ATCC contains a mixed population of tumorous and nontumorous cells, only between 25-40% of the cells from each cell line responded to induction by rtEa-4-peptide. […] About 1 -2×10^5 cells resuspended in their respective basal medium without FBS were plated in a 6-well culture chamber. Different amounts of trout Ea-4-peptide (0.4 µM, 0.8 µM and 1.6 µM) or control protein (1.6 µM) were added to the wells, and the cell cultures were incubated at 37° C. under a humidified atmosphere of 5% CO2. Twenty-four hours after initiation of the treatment, cells were observed under an Olympic inverted microscope equipped with phase contrast objective lenses (200× magnification).

The test system of test [2] is cultured BALB/3T3 fibroblast. Particulars: recombinant peptides; cited from earlier work.
For a further test, the system named is MDA-MB-231 (C) cells. As to the kind of experiment: Apoptosis observed under microscope. Particulars: about 1.5 μM, about two hours. It is filed as cell-based, human. The protocol: FIG. 21 depicts apoptosis in MDA-MB-231 cells induced by rtEa4-peptide. MDA-MB-231 cells treated with about 1.5 μM of rtEa4-peptide (A, B, and C) or control peptide (D) for about two hours and observed under a microscope. Arrows indicate apoptotic cells.
Killing of cancer cells by E-peptide could be the consequence of apoptosis or necrosis. To differentiate these two possibilities, MDA-MB-231 (C) cells were grown in culture in the presence of about 1.5 μM of trout Ea4-peptide. After about two hours of incubation the cells were observed under a microscope. […] FIG. 22 presents the results of the effect of trout Ea4-peptide on induction of apoptosis in ovarian cancer cells (SKOV-3).

For another test, the system named is MDA-MB-231 cells. Description: Soft agar colony formation of Ea-4 cDNA transfectants. It is filed as cell-based, human. Particulars: cells transfected with Ea-4-peptide cDNA (clones E9 and E15). From the text: Two gene constructs, CMV-IGF-1-sp-Ea-4-cDNA-IRES-EGFP and CMV-IRES-EGFP were used in the transfection studies. The first construct (FIG. 9A) contained Ea-4 peptide cDNA (with a signal peptide sequence derived from hlGF-I), a ribosome re-entry site (IRES) and an enhanced green fluorescence protein (EGFP) marker gene. […] The expression of both gene constructs was driven by a promoter from CMV. Vectors containing the recognized control sequences and marker gene are available from commercial sources (CLONTECH, Palo Alto, Calif.).
Transfection of the cells was accomplished as follows. MDA-MB-231 cells were cultured in F12/DMEM supplemented with 10% FBS and 10 ng/ml of insulin to 90% confluence. About 5×10^6 cells were harvested and resuspended in 1 mL of serum-free F12/DMEM containing 20 µg of un-linearized constructs. The cells were electroporated in a BRL Cell-Porator using the following settings: low .OMEGA., 1180 micro Faraday (µF) capacitance, and two pulses at 200 volts. Following electroporation, cells were resuspended in 12 mL of fresh growth medium and seeded into a 6-well plate to recover. Permanent transfectants expressing green fluorescence protein (GFP) were enriched in a medium containing neomycin (G418) at 1 mg/mL for ten days and followed with 500 µg/mL for continuous maintenance. […]

For test [3], the system named is Caspase-3 mRNA in SKOV-3(A). As to the kind of experiment: Induction of caspase-3 mRNA. It is filed as cell-based, human. An excerpt:
(§1) Induction of caspase-3 has been widely used as an indicator of cells undergoing apoptosis.

The subject of test [4] is Caspase-3 mRNA in OVCAR-3(B). Description: Induction of caspase-3 mRNA. The test is classed as cell-based, human.
Text: as §1

In test [5] the test system is Caspase-3 mRNA in MDA-MB-231. Description: Induction of caspase-3 mRNA. It is filed as cell-based, human.
Text: as §1

The subject of a further test is MDA-MB-231(C). Description: Induction of apoptosis (TUNEL assay). The conditions noted are these: about 1.5 μM, two to three days. It is filed as cell-based, human. The protocol:
FIG. 23 depicts induction of apoptosis in MDA-MB-231 cells by rtEA4-peptide. MDA-MB-231 cells were treated wit control protein or rtEa4-peptide (about 1.5 μM) for two days, and three days, and were then subjected to TUNEL assay. (A) Treatment with rtEa4-peptide for two days; (B) Treatment with rtEa-4-peptide for three days.
(§2) FIG. 24 depicts the effect of rtEa4-peptide on induction of apoptosis in MDA-MB-231 cells treated with rtEa4-peptide. (A) Detection of apoptosis by TUNEL assay; (B) Detection of apoptosis y detecting the induction of the activated caspase-3 activity. MDA-MB-231 cells were treated with about 1.5 μM of rtEa4-peptide for about 48 hours, fixed and subjected to TUNEL assay or stained with anti-human activated caspase-3 serum conjugated with rhodamine. Hydrogen peroxide (H2O2), 0.5 mM, was used to induce apoptosis as a positive control.

Test [6] has as its system activated caspase-3 in MDA-MB-231(C). Description: Activated caspase-3 staining. The test is classed as cell-based, human. The conditions noted are these: about 1.5 μM, about 48 hours. The protocol: as §2, §1
Test [7] has as its system various human cancer cell lines. As to the kind of experiment: Killing of cancer cells in vitro (% cell growth). It is filed as cell-based. The conditions noted are these: various amounts, about 48 hours. On the procedure:
FIG. 20 depicts the effects of synthetic hEB-peptide on killing of various human cancer cells. About 1×10^6 cells of cancer cells were seeded in each well of a 96-well plate and various amounts of synthetic hEb-peptide were added as indicated. The cells were cultured for about 48 hours and the % of cell growth was determined.
About 1×10^6 cells of various human cancer cell lines were seeded in each well of a 96-well culture plate with various amounts of synthetic human Eb-peptide (shEb-peptide). It is specifically contemplated by the inventors that in any of the examples of the preferred embodiments described herein, synthetic or recombinant E domain peptides can be used. After incubation for about 48 hours, the growth of cells in each well was determined and compared to non-hEb-peptide controls.

The test system of test [8] is SK-N-F1 neuroblastoma cells. As to the kind of experiment: Neurite-like process outgrowth / morphological differentiation. It is filed as cell-based, human. Particulars: 2 h.

Data on two molecules can be found in patent US7700353B2, “Compositions and methods for inducing apoptosis in tumor cells” (E-P Therapeutics, Inc., priority 1998, dated 2010).

B1: rtEa-4: recombinant Ea-4 peptide of rainbow trout pro-IGF-I, 74 amino acid residues (SEQ ID NO: 2) (protein)
chain: RSVRAQRHTDMPRTPKVSTAVQNVDRGTERRTAQHPDKTKTKKKPLSGHSHPSCKEVHQKNSSRGNTGGRNYRM
modifications: Oncorhynchus mykiss
Regarding B1, the “extent of the morphological change” value in test [1] (0.4 to 1.6 μM) was “proportional to the amounts”. For the same molecule, the “cells responsive to treatment” value in test [1] (purified single-cell clones, 0.4-1.6 μM, 24 hours) is recorded as around 95%. Further, the mitogenic activity entry in test [2] is on record as “possess mitogenic activity”. Further, the “apoptosis (microscopy)” value in the test with MDA-MB-231 (C) cells is listed as “going through apoptosis”. The colony formation activity entry in the test on MDA-MB-231 cells is recorded as “abolished”. In addition, the “Caspase-3 mRNA” value in test [3] (0.04 μM) is 3.0 × 10^5 ± # molecules / μg total RNA; in [3] (0.20 μM) it was 2.5 × 10^5 ± # molecules / μg total RNA; in test [3] (1.00 μM) it was 3.7 × 10^5 ± # molecules / μg total RNA; in test [3] (5.00 μM) it was 2.2 × 10^5 ± # molecules / μg total RNA; in [4] (0.04 μM) it was 7.8 × 10^5 ± 7.9 × 10^4 molecules / μg total RNA; in test [4] (0.20 μM) it was 9.9 × 10^5 ± 2.0 × 10^4 molecules / μg total RNA. Also, the “Caspase-3 mRNA” value in [4] (1.00 μM) is listed as 1.9 × 10^5 ± 3.4 × 10^4 molecules / μg total RNA; in test [4] (5.00 μM), 1.0 × 10^5 ± 1.4 × 10^4 molecules / μg total RNA; in test [5] (0.04 μM) it was 3.9 × 10^5 ± 3.8 × 10^4 molecules / μg total RNA; in [5] (0.20 μM), 3.4 × 10^5 ± 3.1 × 10^4 molecules / μg total RNA; in test [5] (1.00 μM), 4.6 × 10^5 ± 9.5 × 10^4 molecules / μg total RNA; in test [5] (5.00 μM), 5.8 × 10^5 ± 1.3 × 10^4 molecules / μg total RNA. Also, in the test on MDA-MB-231(C), the TUNEL staining entry is “TUNEL staining positive”. Besides, the “level of activated caspase-3 activity” value in test [6] is recorded as “induced”.

B2: hEb: chemically synthesized human Eb peptide of pro-IGF-I, 77 amino acid residues (SEQ ID NO:1) (peptide, listed as Homo sapiens)
chain: RSVRAQRHTDMPKTQKYQPPSTNKNTKSQRRKGWPKTHPGGEQKEGTEASLQIRGKKKEQRREIGSRNAECRGKKGK
Take B2: the “killing of cancer cells” value in [7] was “different degrees of killing”. In addition, the Neurite length in test [8] (0.4 μM) was 30 ± 1.6 μm; in test [8] (1.6 μM), 33 ± 3.8 μm; in test [8] (3.2 μM), 33 ± 2.8 μm.
